Laboratory results published in US20050287144A1.

Target: endogenous NIK of mouse embryonic fibroblast cells (mouse) (UniProt Q9WUL6)
Test: cell-based or functional assay

endogenous NIK of mouse embryonic fibroblast cells (mouse), sequence (Q9WUL6 whole entry): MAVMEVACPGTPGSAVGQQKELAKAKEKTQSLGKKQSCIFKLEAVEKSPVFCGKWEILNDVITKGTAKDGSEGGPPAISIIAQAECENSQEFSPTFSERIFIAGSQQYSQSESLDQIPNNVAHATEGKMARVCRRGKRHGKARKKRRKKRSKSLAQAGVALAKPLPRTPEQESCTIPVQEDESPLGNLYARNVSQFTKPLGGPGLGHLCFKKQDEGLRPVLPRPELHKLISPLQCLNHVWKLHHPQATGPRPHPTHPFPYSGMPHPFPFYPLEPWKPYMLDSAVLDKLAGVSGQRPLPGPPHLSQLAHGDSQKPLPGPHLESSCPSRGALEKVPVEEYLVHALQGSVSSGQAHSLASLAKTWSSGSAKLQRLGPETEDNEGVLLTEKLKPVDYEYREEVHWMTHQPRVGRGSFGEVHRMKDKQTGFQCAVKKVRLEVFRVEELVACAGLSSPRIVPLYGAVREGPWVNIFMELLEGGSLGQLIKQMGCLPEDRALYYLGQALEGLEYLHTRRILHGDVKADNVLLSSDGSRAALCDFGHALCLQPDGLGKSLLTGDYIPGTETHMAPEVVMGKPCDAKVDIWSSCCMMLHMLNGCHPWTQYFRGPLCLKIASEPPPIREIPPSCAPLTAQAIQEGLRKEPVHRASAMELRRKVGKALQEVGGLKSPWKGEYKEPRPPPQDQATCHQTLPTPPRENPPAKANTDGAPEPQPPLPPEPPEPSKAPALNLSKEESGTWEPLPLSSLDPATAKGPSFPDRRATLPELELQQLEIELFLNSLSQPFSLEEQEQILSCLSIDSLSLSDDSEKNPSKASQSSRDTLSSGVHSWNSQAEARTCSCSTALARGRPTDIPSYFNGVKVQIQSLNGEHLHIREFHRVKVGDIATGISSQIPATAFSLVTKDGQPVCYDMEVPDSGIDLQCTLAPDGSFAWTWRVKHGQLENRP

Substance | NF-κB activation by LTβ, luciferase reporter, mouse embryonic fibroblast cells [fold] | decrease in NF-κB activation by LTβ, luciferase reporter, mouse embryonic fibroblast cells [%]
GST fusion protein with the intracellular domain of cγc (from UniProt P31785 284-369) | 2.5 | 
GST-41MDD fusion protein (from UniProt P31785 329-369) |  | 50
